PMC10397247
Like-named read-outs stand apart in the source and are kept apart here.

Experiments:
[1] = target: T1, 4H3782-AA; test: two-hybrid library CCmax; conditions: mean of both orientations;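 also: natural log of median RNA to DNA barcode read ratio; higher means stronger binding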
T1 chain: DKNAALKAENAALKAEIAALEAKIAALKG

[2] = target: T2, 4H3619-AA; test: two-hybrid library CCmax; conditions: mean of both orientations;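 also: natural log of median RNA to DNA barcode read ratio; higher means stronger binding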
T2 chain: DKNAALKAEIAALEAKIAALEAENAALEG

[3] = target: T3, 4H2699-AA; test: two-hybrid library CCmax; conditions: mean of both orientations;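 also: natural log of median RNA to DNA barcode read ratio; higher means stronger binding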
T3 chain: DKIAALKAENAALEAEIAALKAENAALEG

[4] = target: T4, 4H380-AA; test: two-hybrid library CCmax; conditions: mean of both orientations;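 also: natural log of median RNA to DNA barcode read ratio; higher means stronger binding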
T4 chain: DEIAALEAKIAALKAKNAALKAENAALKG

[5] = target: T5, 4H2903-AA; test: two-hybrid library CCmax; conditions: mean of both orientations;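 also: natural log of median RNA to DNA barcode read ratio; higher means stronger binding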
T5 chain: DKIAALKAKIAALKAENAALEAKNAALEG

[6] = target: T6, 4H3049-AA; test: two-hybrid library CCmax; conditions: mean of both orientations;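 also: natural log of median RNA to DNA barcode read ratio; higher means stronger binding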
T6 chain: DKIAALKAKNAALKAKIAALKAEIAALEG

[7] = target: T7, 4H446-AA; test: two-hybrid library CCmax; conditions: mean of both orientations
T7 chain: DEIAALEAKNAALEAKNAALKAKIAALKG

[8] = target: T8, 4H3595-AA; test: two-hybrid library CCmax; conditions: mean of both orientations
T8 chain: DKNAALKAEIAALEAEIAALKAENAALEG

[9] = target: T9, 4H3414-AA; test: two-hybrid library CCmax; conditions: mean of both orientations
T9 chain: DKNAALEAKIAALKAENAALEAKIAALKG

[10] = target: T10, 4H63-AA; test: two-hybrid library CCmax; conditions: mean of both orientations
T10 chain: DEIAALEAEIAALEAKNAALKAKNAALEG

[11] = target: T11, 4H2947-AA; test: two-hybrid library CCmax; conditions: mean of both orientations
T11 chain: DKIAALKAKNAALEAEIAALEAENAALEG

[12] = target: T12, 4H3939-AA; test: two-hybrid library CCmax; conditions: mean of both orientations
T12 chain: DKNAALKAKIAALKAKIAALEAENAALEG

[13] = target: T13, 4H324-AA; test: two-hybrid library CCmax; conditions: mean of both orientations
T13 chain: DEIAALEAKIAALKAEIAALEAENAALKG

[14] = target: T14, 4H341-AA; test: two-hybrid library CCmax; conditions: mean of both orientations
T14 chain: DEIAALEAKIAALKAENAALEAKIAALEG

[15] = target: T15, 4H2604-AA; test: two-hybrid library CCmax; conditions: mean of both orientations
T15 chain: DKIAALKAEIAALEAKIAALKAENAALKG

[16] = target: T16, 4H483-AA; test: two-hybrid library CCmax; conditions: mean of both orientations
T16 chain: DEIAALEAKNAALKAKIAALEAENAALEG

[17] = target: T17, 4H432-AA; test: two-hybrid library CCmax; conditions: mean of both orientations
T17 chain: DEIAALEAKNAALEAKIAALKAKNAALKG

[18] = target: T18, 4H3094-AA; test: two-hybrid library CCmax; conditions: mean of both orientations
T18 chain: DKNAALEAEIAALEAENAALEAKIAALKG

[19] = target: T19, 4H3969-AA; test: two-hybrid library CCmax; conditions: mean of both orientations
T19 chain: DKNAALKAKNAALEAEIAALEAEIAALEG

[20] = target: T20, 4H3915-AA; test: two-hybrid library CCmax; conditions: mean of both orientations
T20 chain: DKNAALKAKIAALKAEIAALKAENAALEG

[21] = target: T21, 4H464-AA; test: two-hybrid library CCmax; conditions: mean of both orientations
T21 chain: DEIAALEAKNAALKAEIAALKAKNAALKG

[22] = target: T22, 4H2961-AA; test: two-hybrid library CCmax; conditions: mean of both orientations
T22 chain: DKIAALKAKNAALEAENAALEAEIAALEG

[23] = target: T23, 4H2774-AA; test: two-hybrid library CCmax; conditions: mean of both orientations
T23 chain: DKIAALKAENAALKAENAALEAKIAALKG

[24] = target: T24, 4H2728-AA; test: two-hybrid library CCmax; conditions: mean of both orientations
T24 chain: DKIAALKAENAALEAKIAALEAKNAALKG

[25] = target: T25, 4H2621-AA; test: two-hybrid library CCmax
T25 chain: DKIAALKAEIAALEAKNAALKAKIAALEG

[26] = target: T26, 4H3629-AA; test: two-hybrid library CCmax; conditions: mean of both orientations
T26 chain: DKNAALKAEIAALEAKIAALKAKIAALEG

[27] = target: T27, 4H3974-AA; test: two-hybrid library CCmax; conditions: mean of both orientations
T27 chain: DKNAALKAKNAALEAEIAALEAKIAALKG

[28] = target: T28, 4H2580-AA; test: two-hybrid library CCmax
T28 chain: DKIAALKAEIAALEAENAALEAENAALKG

[29] = target: T29, 4H3129-AA; test: two-hybrid library CCmax
T29 chain: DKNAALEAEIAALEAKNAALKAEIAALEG

[30] = target: T30, 4H2760-AA; test: two-hybrid library CCmax; conditions: mean of both orientations
T30 chain: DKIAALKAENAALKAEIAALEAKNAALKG

[31] = target: T31, 4H3777-AA; test: two-hybrid library CCmax; conditions: mean of both orientations
T31 chain: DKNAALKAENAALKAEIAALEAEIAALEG

[32] = target: T32, 4H3449-AA; test: two-hybrid library CCmax; conditions: mean of both orientations
T32 chain: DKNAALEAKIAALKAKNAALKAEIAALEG

[33] = target: T33, 4H570-bN; test: two-hybrid library CCNG1
T33 chain: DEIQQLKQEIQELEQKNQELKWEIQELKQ

[34] = target: T34, 4H619-bN; test: two-hybrid library CCNG1
T34 chain: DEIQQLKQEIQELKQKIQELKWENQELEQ

[35] = target: T35, 4H3817-bN; test: two-hybrid library CCNG1
T35 chain: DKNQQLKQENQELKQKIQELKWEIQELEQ

[36] = target: T36, 4H3414-bN; test: two-hybrid library CCNG1
T36 chain: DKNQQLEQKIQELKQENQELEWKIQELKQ

[37] = target: T37, 4H584-bN; test: two-hybrid library CCNG1
T37 chain: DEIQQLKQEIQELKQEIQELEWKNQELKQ

[38] = target: T38, 4H906-bN; test: two-hybrid library CCNG1
T38 chain: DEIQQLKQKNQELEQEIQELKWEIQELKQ

[39] = target: T39, 4H3974-bN; test: two-hybrid library CCNG1
T39 chain: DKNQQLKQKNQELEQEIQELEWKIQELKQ

[40] = target: T40, 4H850-bN; test: two-hybrid library CCNG1
T40 chain: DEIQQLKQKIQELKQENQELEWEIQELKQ

[41] = target: T41, 4H3638-bN; test: two-hybrid library CCNG1
T41 chain: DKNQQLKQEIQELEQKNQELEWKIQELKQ

[42] = target: T42, 4H3631-bN; test: two-hybrid library CCNG1
T42 chain: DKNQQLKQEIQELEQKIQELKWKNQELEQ

[43] = target: T43, P6mS; test: two-hybrid library CC1; conditions: mean of both orientations
T43 chain: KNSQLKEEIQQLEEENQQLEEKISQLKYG

[44] = target: T44, P6SC1; test: two-hybrid library CC1; conditions: mean of both orientations
T44 chain: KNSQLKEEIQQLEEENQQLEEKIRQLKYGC

[45] = target: T45, P6SC2; test: two-hybrid library CC1; conditions: mean of both orientations
T45 chain: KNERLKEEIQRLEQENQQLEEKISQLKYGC

[46] = target: T46, P7; test: two-hybrid library CC1; conditions: mean of both orientations
T46 chain: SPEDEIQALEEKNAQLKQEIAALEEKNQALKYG

[47] = target: T47, P7mS; test: two-hybrid library CC1; conditions: mean of both orientations
T47 chain: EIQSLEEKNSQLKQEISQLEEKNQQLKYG

[48] = target: T48, P9; test: two-hybrid library CC1; conditions: mean of both orientations
T48 chain: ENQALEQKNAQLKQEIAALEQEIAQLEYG

[49] = target: T49, P6; test: two-hybrid library CC1
T49 chain: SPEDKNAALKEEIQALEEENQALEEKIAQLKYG

[50] = target: T50, P8mS; test: two-hybrid library CC1; conditions: mean of both orientations
T50 chain: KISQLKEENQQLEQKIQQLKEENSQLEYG

[51] = target: T51, P8; test: two-hybrid library CC1; conditions: mean of both orientations
T51 chain: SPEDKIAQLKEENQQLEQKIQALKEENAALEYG

## DKIAALKAEIAALEAENAALEAENAALKG [4H2580-AA]
[1]
  interaction score: -1.52
[2]
  interaction score: -1.26
[3]
  interaction score: -1.81
[4]
  interaction score: 1.77
[5]
  interaction score: -0.221
[6]
  interaction score: -0.107
[7]
  interaction score: -1.11
[8]
  interaction score: -1.29
[9]
  interaction score: -1.09
[10]
  interaction score: 0.964
[11]
  interaction score: -1.82
[12]
  interaction score: -0.303
[13]
  interaction score: 1.93
[14]
  interaction score: 0.477
[15]
  interaction score: 1.41
[16]
  interaction score: -1.33
[17]
  interaction score: -1.04
[18]
  interaction score: -1.36
[19]
  interaction score: -1.28
[20]
  interaction score: -0.741
[21]
  interaction score: -0.738
[22]
  interaction score: -1.82
[23]
  interaction score: -1.28
[24]
  interaction score: -1.69
[25]; mean of both orientations
  interaction score: -0.357
[26]
  interaction score: -0.787
[27]
  interaction score: -1.2
[28]
  interaction score: 0.179
[29]; mean of both orientations
  interaction score: -1.21
[30]
  interaction score: -1.47
[31]
  interaction score: -1.49
[32]
  interaction score: 0.308

## DKIAALKAEIAALEAKNAALKAKIAALEG [4H2621-AA]
[1]
  interaction score: -1.63
[2]
  interaction score: 0.162
[3]
  interaction score: -0.173
[4]
  interaction score: -0.998
[5]
  interaction score: 1.71
[6]
  interaction score: 0.214
[7]
  interaction score: -1.41
[8]
  interaction score: 0.312
[9]
  interaction score: 2.21
[10]
  interaction score: -0.787
[11]
  interaction score: -1.47
[12]
  interaction score: -0.531
[13]
  interaction score: 1.33
[14]
  interaction score: 2.39
[16]
  interaction score: -1.55
[17]
  interaction score: -1.5
[18]
  interaction score: 1.09
[19]
  interaction score: -1.35
[20]
  interaction score: -1.18
[21]
  interaction score: -1.44
[22]
  interaction score: -0.217
[23]
  interaction score: -0.116
[24]
  interaction score: 1.6
[25]
  interaction score: 1.1
[26]
  interaction score: 0.71
[27]
  interaction score: -0.826
[29]
  interaction score: -1.64
[30]
  interaction score: -0.432
[31]
  interaction score: -1.64
[32]
  interaction score: -0.832

## DKNQQLEQKIQELKQENQELEWKIQELKQ [4H3414-bN]
[33]
  interaction score: -0.223
[34]
  interaction score: -2.07
[35]
  interaction score: -0.982
[36]
  interaction score: -0.0983
[37]
  interaction score: -1.04
[38]
  interaction score: -1.04
[39]
  interaction score: -0.178
[40]
  interaction score: 0.132
[41]
  interaction score: -1.41
[42]
  interaction score: -1.25

## SPEDKNAALKEEIQALEEENQALEEKIAQLKYG [P6]
[43]
  interaction score: -2.76
[44]
  interaction score: -2.74
[45]
  interaction score: -2.56
[46]
  interaction score: -0.929
[47]
  interaction score: -2.6
[48]
  interaction score: -1.98
[49]
  interaction score: -2.71
[50]
  interaction score: -2.62
[51]
  interaction score: -2.37
